Test results published in PMC10397247.

How the values were obtained:
[1] = target: T1, P7mS; experiment: two-hybrid library CC1; conditions: mean of both orientations;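 note: natural log of median RNA to DNA barcode read ratio; higher means stronger binding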
T1 chain: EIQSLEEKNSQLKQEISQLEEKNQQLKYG

[2] = target: T2, P4mS; experiment: two-hybrid library CC1; conditions: mean of both orientations;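 note: natural log of median RNA to DNA barcode read ratio; higher means stronger binding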
T2 chain: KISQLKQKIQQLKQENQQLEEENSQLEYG

[3] = target: T3, P8; experiment: two-hybrid library CC1; conditions: mean of both orientations;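 note: natural log of median RNA to DNA barcode read ratio; higher means stronger binding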
T3 chain: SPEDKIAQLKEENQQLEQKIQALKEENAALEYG

[4] = target: T4, P5SC1; experiment: two-hybrid library CC1; conditions: mean of both orientations;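 note: natural log of median RNA to DNA barcode read ratio; higher means stronger binding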
T4 chain: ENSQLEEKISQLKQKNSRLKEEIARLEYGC

[5] = target: T5, P5; experiment: two-hybrid library CC1; conditions: mean of both orientations;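 note: natural log of median RNA to DNA barcode read ratio; higher means stronger binding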
T5 chain: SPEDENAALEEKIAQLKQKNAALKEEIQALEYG

[6] = target: T6, P6; experiment: two-hybrid library CC1; conditions: mean of both orientations;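 note: natural log of median RNA to DNA barcode read ratio; higher means stronger binding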
T6 chain: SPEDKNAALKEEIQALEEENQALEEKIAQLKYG

[7] = target: T7, P8mS; experiment: two-hybrid library CC1; conditions: mean of both orientations
T7 chain: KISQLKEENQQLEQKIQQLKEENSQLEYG

[8] = target: T8, P3; experiment: two-hybrid library CC1
T8 chain: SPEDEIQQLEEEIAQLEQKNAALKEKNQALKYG

[9] = target: T9, P4; experiment: two-hybrid library CC1; conditions: mean of both orientations
T9 chain: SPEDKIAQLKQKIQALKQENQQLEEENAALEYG

[10] = target: T10, P7; experiment: two-hybrid library CC1; conditions: mean of both orientations
T10 chain: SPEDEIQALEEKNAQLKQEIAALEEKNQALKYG

[11] = target: T11, P3mS; experiment: two-hybrid library CC1; conditions: mean of both orientations
T11 chain: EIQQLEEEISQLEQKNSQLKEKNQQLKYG

[12] = target: T12, P9; experiment: two-hybrid library CC1; conditions: mean of both orientations
T12 chain: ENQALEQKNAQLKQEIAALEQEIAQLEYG

[13] = target: T13, P6SC1; experiment: two-hybrid library CC1; conditions: mean of both orientations
T13 chain: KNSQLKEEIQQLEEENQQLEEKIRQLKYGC

[14] = target: T14, P5mS; experiment: two-hybrid library CC1; conditions: mean of both orientations
T14 chain: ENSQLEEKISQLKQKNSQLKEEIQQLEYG

[15] = target: T15, P5SC2; experiment: two-hybrid library CC1; conditions: mean of both orientations
T15 chain: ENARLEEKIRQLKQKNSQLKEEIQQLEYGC

[16] = target: T16, P6SC2; experiment: two-hybrid library CC1; conditions: mean of both orientations
T16 chain: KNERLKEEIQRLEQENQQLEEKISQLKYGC

[17] = target: T17, P6mS; experiment: two-hybrid library CC1; conditions: mean of both orientations
T17 chain: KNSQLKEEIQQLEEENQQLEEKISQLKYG

[18] = target: T18, O14-bN; experiment: two-hybrid library CCNG1
T18 chain: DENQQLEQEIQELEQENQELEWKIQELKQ

[19] = target: T19, O3-bN; experiment: two-hybrid library CCNG1
T19 chain: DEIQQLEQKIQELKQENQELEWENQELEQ

[20] = target: T20, O13-bN; experiment: two-hybrid library CCNG1
T20 chain: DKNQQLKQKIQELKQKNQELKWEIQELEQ

[21] = target: T21, O16-bN; experiment: two-hybrid library CCNG1
T21 chain: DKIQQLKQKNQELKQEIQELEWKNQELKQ

[22] = target: T22, O7-bN; experiment: two-hybrid library CCNG1
T22 chain: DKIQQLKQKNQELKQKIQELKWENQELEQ

[23] = target: T23, O15-bN; experiment: two-hybrid library CCNG1
T23 chain: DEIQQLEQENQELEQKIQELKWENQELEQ

[24] = target: T24, O8-bN; experiment: two-hybrid library CCNG1
T24 chain: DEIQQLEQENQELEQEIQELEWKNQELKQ

[25] = target: T25, O5-bN; experiment: two-hybrid library CCNG1
T25 chain: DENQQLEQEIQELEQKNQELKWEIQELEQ

[26] = target: T26, O9-bN; experiment: two-hybrid library CCNG1
T26 chain: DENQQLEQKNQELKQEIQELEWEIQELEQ

[27] = target: T27, O2-bN; experiment: two-hybrid library CCNG1
T27 chain: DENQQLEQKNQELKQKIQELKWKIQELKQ

[28] = target: T28, O4-bN; experiment: two-hybrid library CCNG1
T28 chain: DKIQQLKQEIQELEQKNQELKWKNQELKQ

[29] = target: T29, O6-bN; experiment: two-hybrid library CCNG1
T29 chain: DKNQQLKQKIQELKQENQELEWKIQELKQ

[30] = target: T30, O12-bN; experiment: two-hybrid library CCNG1
T30 chain: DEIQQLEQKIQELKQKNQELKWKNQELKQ

[31] = target: T31, 4H780-bN; experiment: two-hybrid library CCNG1
T31 chain: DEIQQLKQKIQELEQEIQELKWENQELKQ

[32] = target: T32, 4H3010-bN; experiment: two-hybrid library CCNG1
T32 chain: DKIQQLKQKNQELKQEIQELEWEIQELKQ

[33] = target: T33, 4H683-bN; experiment: two-hybrid library CCNG1
T33 chain: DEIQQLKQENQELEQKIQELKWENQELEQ

[34] = target: T34, 4H3926-bN; experiment: two-hybrid library CCNG1
T34 chain: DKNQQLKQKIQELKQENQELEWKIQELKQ

[35] = target: T35, 4H918-bN; experiment: two-hybrid library CCNG1
T35 chain: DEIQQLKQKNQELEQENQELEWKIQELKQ

[36] = target: T36, 4H797-bN; experiment: two-hybrid library CCNG1
T36 chain: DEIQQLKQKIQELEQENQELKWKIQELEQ

[37] = target: T37, 4H4073-bN; experiment: two-hybrid library CCNG1
T37 chain: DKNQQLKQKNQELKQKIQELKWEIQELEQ

[38] = target: T38, 4H855-bN; experiment: two-hybrid library CCNG1
T38 chain: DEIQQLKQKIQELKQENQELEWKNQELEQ

[39] = target: T39, 4H2673-bN; experiment: two-hybrid library CCNG1
T39 chain: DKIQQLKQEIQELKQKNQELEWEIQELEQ

[40] = target: T40, 4H170-bN; experiment: two-hybrid library CCNG1
T40 chain: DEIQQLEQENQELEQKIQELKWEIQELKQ

[41] = target: T41, 4H118-bN; experiment: two-hybrid library CCNG1
T41 chain: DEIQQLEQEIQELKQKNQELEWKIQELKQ

[42] = target: T42, 4H968-bN; experiment: two-hybrid library CCNG1
T42 chain: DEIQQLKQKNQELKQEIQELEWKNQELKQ

[43] = target: T43, 4H2702-bN; experiment: two-hybrid library CCNG1
T43 chain: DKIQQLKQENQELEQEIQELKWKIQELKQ

[44] = target: T44, 4H2627-bN; experiment: two-hybrid library CCNG1
T44 chain: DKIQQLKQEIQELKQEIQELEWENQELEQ

[45] = target: T45, 4H457-bN; experiment: two-hybrid library CCNG1
T45 chain: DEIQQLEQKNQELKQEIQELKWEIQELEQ

[46] = target: T46, 4H2586-bN; experiment: two-hybrid library CCNG1
T46 chain: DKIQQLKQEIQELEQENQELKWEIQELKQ

[47] = target: T47, 4H754-bN; experiment: two-hybrid library CCNG1
T47 chain: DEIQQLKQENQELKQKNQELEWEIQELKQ

[48] = target: T48, 4H346-bN; experiment: two-hybrid library CCNG1
T48 chain: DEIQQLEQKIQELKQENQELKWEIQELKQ

[49] = target: T49, 4H3112-bN; experiment: two-hybrid library CCNG1
T49 chain: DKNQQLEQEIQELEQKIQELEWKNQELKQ

[50] = target: T50, 4H575-bN; experiment: two-hybrid library CCNG1
T50 chain: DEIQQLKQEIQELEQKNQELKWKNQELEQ

[51] = target: T51, 4H1831-bN; experiment: two-hybrid library CCNG1
T51 chain: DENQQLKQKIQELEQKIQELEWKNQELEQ

[52] = target: T52, O15-bS; experiment: two-hybrid library CCNG1
T52 chain: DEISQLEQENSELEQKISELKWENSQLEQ

[53] = target: T53, 4H3427-bN; experiment: two-hybrid library CCNG1
T53 chain: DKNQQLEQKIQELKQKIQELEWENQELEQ

[54] = target: T54, 4H953-bN; experiment: two-hybrid library CCNG1
T54 chain: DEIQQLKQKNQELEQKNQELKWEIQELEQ

## SPEDEIQQLEEEIAQLEQKNAALKEKNQALKYG [P3]
[1]
  interaction score: -2.58
[2]
  interaction score: 0.336
[3]
  interaction score: -2.6
[4]
  interaction score: -2.58
[5]
  interaction score: -2.66
[6]
  interaction score: -2.59
[7]
  interaction score: -2.7
[8]
  interaction score: -2.65
[9]
  interaction score: 0.154
[10]
  interaction score: -2.61
[11]
  interaction score: -2.89
[12]
  interaction score: -2.09
[13]
  interaction score: -2.57
[14]
  interaction score: -2.66
[15]
  interaction score: -2.4
[16]
  interaction score: -2.04
[17]
  interaction score: -2.79

## DEIQQLEQKIQELKQKNQELKWKNQELKQ [O12-bN]
[18]
  interaction score: -0.704
[19]
  interaction score: 0.565
[20]
  interaction score: -0.316
[21]
  interaction score: -0.487
[22]
  interaction score: -0.201
[23]
  interaction score: -0.511
[24]
  interaction score: 0.0745
[25]
  interaction score: -2.82
[26]
  interaction score: -0.349
[27]
  interaction score: -0.846
[28]
  interaction score: -0.33
[29]
  interaction score: 0.155
[30]
  interaction score: -0.0253

## DEIQQLEQEIQELKQKNQELEWKIQELKQ [4H118-bN]
[31]
  interaction score: -0.129
[32]
  interaction score: 2.35
[33]
  interaction score: -0.936
[34]
  interaction score: 1.02
[35]
  interaction score: -0.314
[36]
  interaction score: -0.885
[37]
  interaction score: -1.59
[38]
  interaction score: 0.221
[39]
  interaction score: 1.25
[40]
  interaction score: -1.27
[41]
  interaction score: 0.139
[42]
  interaction score: 0.0583
[43]
  interaction score: 0.0476
[44]
  interaction score: 0.463
[45]
  interaction score: -1.63
[46]
  interaction score: 0.735
[47]
  interaction score: -0.655
[48]
  interaction score: -0.129
[49]
  interaction score: -0.413
[50]
  interaction score: -0.336
[51]
  interaction score: -0.392
[52]
  interaction score: -1.04
[53]
  interaction score: -0.395
[54]
  interaction score: -0.648
